Assay [1] addresses T1, human IL-15 (preparation not stated) (human, UniProt P40933 49-162, limits assumed).
T1 construct: also called recombinant IL-15; recombinant human IL-15
Description: ELISA screen of hybridoma supernatants.

In assay [2] the target is T1, human IL-15 (preparation not stated). Kind of assay: ELISA; the weaker binders of the comparison. (In general: An ELISA detects its analyte on a solid surface through an enzyme-linked reagent.)
Assay [3] concerns the target T2, recombinant human IL-15 (Prospec cat no. CYT230) (human, UniProt P40933 49-162). Kind of assay: ELISA, plate-bound human IL-15; printed as BC50 (half-maximal binding concentration). Here is the method: (§1) Maxisorp plates were coated with recombinant human IL-15 (Prospec cat no. CYT230) or Rhesus macaque IL-15 (MyBiosource cat. no. MBS948894) at 100 ng/well in carbonate coating buffer for 2 hours at 37° C. Since published sequences of Rhesus macaque and Cynomolgus monkey IL-15 are identical, such recombinant IL-15 protein was referred to as Macaque Monkey IL-15. Tested human IL-15 recombinant protein has a sequence identical to that provided in SEQ ID NO: 1 but with an additional methionine at the N-terminal position as usually done for expressing recombinant proteins in E. Coli. Tested recombinant Macaque Monkey IL-15 was produced in yeast and has a sequence identical to that provided in SEQ ID NO: 4 but with an additional N-terminal His tag.
(§2) The plate was then blocked with 2% normal goat serum for 30 min at 37° C. and washed 6 times with PBS-Tween (0.05% Tween-20 in PBS, v/v). Test antibodies were added to the plate in triplicate at various dilutions in PBS-Tween and the plate was incubated with gentle rocking at room temperature for 2 hours. The plate was then washed 6 times with PBS-Tween and an appropriate dilution of goat anti-human IgG antibody (Millipore cat. no. AP309P) conjugated to horseradish peroxidase (HRP) was added to the plate and left rocking at room temperature for 1 hour. The plate was then washed 6 times with PBS-Tween and incubated with TMB substrate. The reaction was stopped by the addition of 1M H₂SO₄ and read at 450 nm. Dose response curves of absorbance versus concentration were plotted and analyzed to determine half-maximal binding concentrations (BC₅₀) using the Graphpad Prism software. BC₅₀ values expressed as molarity were extrapolated from concentration in ng/ml using a 150 kDa molecular weight value for all antibodies.

Assay [4] concerns the target T3, recombinant human IL-15 (R&D systems cat. no. 247-IL) (human, UniProt P40933 49-162). Kind of assay: cell-based or functional assay.
Assay [5] deals with T2, recombinant human IL-15 (Prospec cat …). Kind of assay: SPR (Biacore 3000), human IL-15 amine-coupled to the chip, antibody injected, 1:1 Langmuir fit. Here is the method:
Human IL-15 (Prospec cat no. CYT230) was immobilized onto a CMS chip (GE Healthcare) using standard amine coupling, and antibodies injected at various concentrations in 120 μl phosphate buffer saline with a flow rate of […]. Binding kinetics were analyzed on a Biacore 3000 apparatus (GE Healthcare) with a 300 seconds dissociation period. Reference signal and 0 nM antibody concentration signal were substracted and data fitted using a 1:1 (Langmuir) binding model.
A general note: In SPR one partner is held on a chip, and binding of the other changes the refractive index at the surface.

Assay [6] addresses T1, human IL-15 (preparation not stated). Description: cell-based or functional assay.
For assay [7], the target named is T4, recombinant Macaque Monkey IL-15 (MyBiosource cat. no. MBS948894) (Rhesus macaque / Cynomolgus monkey, UniProt P40221 49-162 (Chlorocebus aethiops entry)).
T4 construct: Produced in yeast; also called Rhesus macaque IL-15; recombinant monkey IL-15; not shown: additional N-terminal His tag
Kind of assay: ELISA, plate-bound Macaque Monkey IL-15; printed as BC50 (half-maximal binding concentration). Here is the method: as §1, §2

Assay [8] deals with T5, recombinant mouse IL-15 (R&D Systems cat. no. 447-ML) (mouse, UniProt P48346 49-162).
T5 sequence: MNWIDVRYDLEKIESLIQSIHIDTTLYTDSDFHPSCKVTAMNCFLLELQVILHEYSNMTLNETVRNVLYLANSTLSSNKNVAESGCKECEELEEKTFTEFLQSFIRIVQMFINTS
Kind of assay: ELISA, plate-bound recombinant mouse IL-15 (100 ng/well), HRP goat anti-human IgG, absorbance at 450 nm. Here is the method:
(§3) Maxisorp plates were coated with recombinant mouse IL-15 (R&D Systems cat. no. 447-ML) or rat IL-15 (Sigma cat. no. SRP4172) at 100 ng/well in carbonate coating buffer for 2 hours at 37° C. Tested IL-15 recombinant proteins have a sequence identical to that provided in SEQ ID NO: 2 (mouse IL-15) and SEQ ID NO: 3 (rat IL-15) but with an additional methionine at the N-terminal position as usually done for expressing recombinant proteins in E. Coli.
(§4) The plate was then blocked with 2% normal goat serum for 30 min at 37° C. and washed 6 times with PBS-Tween (0.05% Tween-20 in PBS, v/v). Test antibodies were added to the plate in triplicate at various dilutions in PBS-Tween and the plate was incubated with gentle rocking at room temperature for 2 hours. As positive controls, rabbit-anti-mouse IL-15 (Acris cat. no. AP01124PU-S) or rabbit anti-rat IL-15 (Biovision cat. no. 5172) antibodies were tested at the same concentrations. The plate was then washed 6 times with PBS-Tween and an appropriate dilution of HRP-conjugated goat anti-human IgG antibody (Millipore cat. no. AP309P) for humanized antibodies, or goat-anti-rabbit IgG antibody (Sigma cat. no. A 4416) for the positive controls was added and the plate was left rocking at room temperature for 1 hour. The plate was then washed 6 times with PBS-Tween and incubated with TMB substrate. The reaction was stopped by the addition of 1M H₂SO₄ and read at 450 nm. Dose response curves of absorbance versus concentration were plotted using the Graphpad Prism software.

The target in assay [9] is T3, recombinant human IL-15 (R&D systems …). Description: cell-based or functional assay. The source holds these as a separate data set.
Assay [10] addresses T4, recombinant Macaque Monkey IL-15 …. Description: cell-based or functional assay.
In assay [11] the target is recombinant human IL-2 (R&D Systems cat. no. 202-IL-010) (human, UniProt P60568 21-153). Kind of assay: ELISA, plate-bound recombinant human IL-2 (100 ng/well), HRP goat anti-human IgG, absorbance at 450 nm. Here is the method:
Maxisorp plates were coated with recombinant human IL-2 (R&D Systems cat. no. 202-IL-010) of SEQ ID NO: 38 at 100 ng/well in carbonate coating buffer for 2 hours at 37° C. The plate was then blocked with 2% normal goat serum for 30 min at 37° C. and washed 4 times with PBS-Tween (0.05% Tween-20 in PBS, v/v). Test antibodies or positive control biotinylated antibody (anti-IL-2 Novus Bio cat. no. NBP1-43491) were added to the plate in duplicate at 5 μg/ml in PBS-Tween and the plate was incubated with gentle rocking at room temperature for 2 hours. The plate was then washed 4 times with PBS-Tween and an appropriate dilution of goat anti-human IgG antibody (Millipore cat. no. AP309P) conjugated to horseradish peroxidase (HRP) for test antibodies, or streptavidin-HRP for positive control antibody, was added to the plate and left rocking at room temperature for 1 hour. The plate was then washed 4 times with PBS-Tween and incubated with TMB (3,3′,5,5′-tetramethylbenzidine) substrate. The reaction was stopped by the addition of 1 M H₂SO₄ and read at 450 nm.

The target of assay [12] is T6, recombinant rat IL-15 (Sigma cat. no. SRP4172) (rat, UniProt P97604 49-162).
T6 sequence: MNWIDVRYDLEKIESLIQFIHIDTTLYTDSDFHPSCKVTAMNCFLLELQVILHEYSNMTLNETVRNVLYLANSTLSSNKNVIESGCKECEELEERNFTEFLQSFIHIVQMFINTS
Description: ELISA, plate-bound recombinant rat IL-15 (100 ng/well), HRP goat anti-human IgG, absorbance at 450 nm. Here is the method: as §3, §4

Assay [13] deals with T2, recombinant human IL-15 (Prospec cat …). Description: ELISA, plate-bound recombinant human IL-15 (100 ng/well), HRP goat anti-human IgG, absorbance at 450 nm. The procedure:
as §1
The plate was then blocked with 2% normal goat serum for 30 min at 37° C. and washed 6 times with PBS-Tween (0.05% Tween-20 in PBS, v/v). […] The reaction was stopped by the addition of 1M H₂SO₄ and read at 450 nm. Dose response curves of absorbance versus concentration were plotted and analyzed to determine half-maximal binding concentrations (BC₅₀) using the Graphpad Prism software. BC₅₀ values expressed as molarity were extrapolated from concentration in ng/ml using a 150 kDa molecular weight value for all antibodies.

T3 sequence (P40933 49-162 limits assumed): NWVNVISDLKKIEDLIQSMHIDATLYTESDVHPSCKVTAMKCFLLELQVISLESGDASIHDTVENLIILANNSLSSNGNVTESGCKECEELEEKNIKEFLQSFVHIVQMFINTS
T1 sequence (P40933 49-162 limits assumed): as above
T2 sequence (P40933 other isoform, or with tags, fused parts or gaps): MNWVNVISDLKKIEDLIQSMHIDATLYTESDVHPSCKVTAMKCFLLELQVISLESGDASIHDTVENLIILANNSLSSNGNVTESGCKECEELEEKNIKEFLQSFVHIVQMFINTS
T4 sequence (P40221 49-162): as the sequence (P40933 49-162 limits assumed) above, with L52H, A57T, S58D, S73I, V80I counted along it
Chain of recombinant human IL-2 (R&D Systems cat. no. 202-IL-010) (P60568 21-153 limits assumed): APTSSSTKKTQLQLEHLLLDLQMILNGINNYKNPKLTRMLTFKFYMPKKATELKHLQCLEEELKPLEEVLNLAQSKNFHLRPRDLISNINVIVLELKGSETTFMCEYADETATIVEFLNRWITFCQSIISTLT

B1: mouse anti-IL-15 monoclonal antibody B-E29 (antibody, V domains shown)
VH: EVRLMASGGGLVKPGGSLKLSCAASEFTFSNYAMSWVRQTPEKRLEWVATISRGGDYTYYPDSVKGRFTISRDNAKNTLYLQMSSLRSEDTALYYCARRVSMITGGWAMDYWGQGTSVTVSS
VL: DVLMTQTPLSLPVSLGDQASISCRSSQSIVDITGNTYLEWYLQKPGQSPKLLIYKVFNRFSGVPDRFSGSGSGTDFTLKISRVEAEDLGLYYCFQDSFVPYTFGGGTKLEIK
notes: Mouse IgG1 (heavy chain) kappa (light chain); also called mouse B-E29; comparative antibody 1
Take B1: the binding result in assay [1] is given as “binds”.

B2: hVH1:hVK2 (antibody, human IgG1, kappa, V domains shown)
VH: EVRLMASGGGLVQPGGSLRLSCAASEFTFSNYAMSWVRQAPGKGLEWVATISRGGDYTYYPDSVKGRFTISRDNSKNTLYLQMNSLRAEDTAVYYCARRVSMITGGWAMDYWGQGTLVTVSS
VL: EVVMTQSPATLSLSPGERATLSCRSSQSIVDITGNTYLEWYQQKPGQAPRLLIYKVFNRFSGIPARFSGSGSGTDFTLTISSLEPEDFAVYYCFQDSFVPYTFGQGTKLEIKR
notes: Human IgG1 (G1m3) / kappa (Km3)
Regarding B2, the binding result in assay [2] was “binds”.

B3: cVH1:hVK2 (antibody, human IgG1, kappa, V domains shown)
VH: EVRLMASGGGLVKPGGSLKLSCAASEFTFSNYAMSWVRQTPEKRLEWVATISRGGDYTYYPDSVKGRFTISRDNAKNTLYLQMSSLRSEDTALYYCARRVSMITGGWAMDYWGQGTSVTVSS
VL: EVVMTQSPATLSLSPGERATLSCRSSQSIVDITGNTYLEWYQQKPGQAPRLLIYKVFNRFSGIPARFSGSGSGTDFTLTISSLEPEDFAVYYCFQDSFVPYTFGQGTKLEIKR
notes: as for B2
B3: the binding result in assay [2] is given as “binds”.

B4: huB-E29-2 (antibody, human IgG1, kappa)
heavy: not shown
light: DVVMTQSPLSLPVTLGQPASISCRSSQSIVDITGNTYLEWYQQRPGQSPRLLIYKVFNRFSGVPDRFSGSGSGTDFTLKISRVEAEDVGVYYCFQDSFVPYTFGQGTKLEIKRTVAAPSVFIFPPSDEQLKSGTASVVCLLNNFYPREAKVQWKVDNALQSGNSQESVTEQDSKDSTYSLSSTLTLSKADYEKHKVYACEVTHQGLSSPVTKSFNRGEC
notes: Humanized B-E29 variant; human IgG1 (G1m3) / kappa (Km3), produced in CHO cells; also called huVH2/huVL1
Turning to B4, the EC50 in [3] amounted to 1.47 nM. Further, the “IC50 in M07e cells for IL-15 trans presentation” value in [4] was found to be 0.37 nM. In addition, in assay [5], the Kd stood at 0.0094 nM, the koff amounted to 1.07e-05 s⁻¹ and the kon was determined as 1.15e+06 M⁻¹ s⁻¹. For the same molecule, in assay [6], the “half-maximal inhibitory concentration (IC50) of IL-15-induced prevention of apoptosis, type II RCD primary IEL cell line HAM RAC” value was 2.36 nM. The EC50 in assay [7] is 0.34 nM. Also, the binding result in [8] is given as “no binding (tested: log 3.7 (about 5000 ng/mL))”. Moreover, in [9], the “IC50 in Kit 225 cells (nM), Human IL-15” value turned out to be 0.083 nM and the “IC50 in M-07e cells (nM), Human IL-15” value was found to be 0.017 nM. In addition, in assay [10], the “IC50 in Kit 225 cells (nM), Macaque Monkey IL-15” value came out at 0.112 nM and the “IC50 in M-07e cells (nM), Macaque Monkey IL-15” value amounted to 0.23 nM. The binding result in assay [11] is “no binding (tested: 5 µg/ml)”. In addition, the binding result in assay [12] is “no binding (tested: log 3.7 (about 5000 ng/mL))”.

B5: 146B7 (comparative antibody 2) (antibody, V domains shown)
VH: EVQLVQSGAEVKKPGESLKISCKVSGYFFTTYWIGWVRQMPGKGLEYMGIIYPGDSDTRYSPSFQGQVTISADKSISTAYLQWSSLKASDTAMYYCARGGNWNCFDYWGQGTLVTVSS
VL: EIVLTQSPGTLSLSPGERATLSCRASQSVSSSYLAWYQQKPGQAPRLLIYGASRRATGIPDRFSGSGSGTDFTLTISRLEPEDFAVYYCQRYGSSHTFGQGTKLEIS
notes: Fully human antibody of the prior art (WO 03/017935), 'produced in the same expression system'; also called AMG 714; HuMaxIL-15
For the molecule B5, in assay [3], the EC50 was 8.41 nM. Also, the “EC50 (read off the curve)” value in assay [13] was about 0.8 mg/L. In addition, the “IC50 in M07e cells for IL-15 trans presentation” value in [4] was determined as 0.63 nM. For the same molecule, in [5], the Kd amounted to 0.0367 nM, the koff was 5.26e-05 s⁻¹ and the kon came to 1.44e+06 M⁻¹ s⁻¹. Further, the EC50 in assay [7] was found to be 0.733 nM. Moreover, in assay [9], the “IC50 in Kit 225 cells (nM), Human IL-15” value amounted to 3.7 nM and the “IC50 in M-07e cells (nM), Human IL-15” value stood at 3.2 nM.

The term EC50 denotes the concentration that produces a half-maximal response. Usually Kd stands for the free concentration of one partner at which half of the binding sites on the other are occupied at equilibrium, for simple one-to-one binding. As a reminder, the koff is the first-order rate constant of dissociation. As a reminder, the kon is the second-order rate constant of association. The EC50 (read off the curve) is the concentration giving half of the maximal effect.
